Measured values taken from patent US20140314744A1.

Target: Recombinant human Fc-tagged MCAM IgG1-2A (human) (UniProt P43121)
Experiment: SPR (Biacore T200), steady state, MCAM IgG1-2A captured by anti-Fc IgG, laminin in solution

Chain of Recombinant human Fc-tagged MCAM IgG1-2A (human) (P43121 19-242): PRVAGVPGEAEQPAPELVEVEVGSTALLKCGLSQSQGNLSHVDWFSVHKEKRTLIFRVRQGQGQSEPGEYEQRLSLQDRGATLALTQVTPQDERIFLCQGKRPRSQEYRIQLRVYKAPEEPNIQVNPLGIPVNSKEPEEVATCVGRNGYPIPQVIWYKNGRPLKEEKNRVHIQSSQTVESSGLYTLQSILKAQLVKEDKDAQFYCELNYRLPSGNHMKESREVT

Recombinant human laminin 411 (Biolamina) (from UniProt Q16363 25-1823; P07942 22-1786; P11047 34-1609) (ligand)
Kd: 66 nM
